The numbers were not newly measured in publication PMC3134471, which cites them from elsewhere.

What is called Kd is the equilibrium constant for the complex coming apart.

The target in this series is luteinizing hormone receptor (Homo sapiens) (UniProt P22888).
Sequence of UniProt P22888 (P22888 27-699): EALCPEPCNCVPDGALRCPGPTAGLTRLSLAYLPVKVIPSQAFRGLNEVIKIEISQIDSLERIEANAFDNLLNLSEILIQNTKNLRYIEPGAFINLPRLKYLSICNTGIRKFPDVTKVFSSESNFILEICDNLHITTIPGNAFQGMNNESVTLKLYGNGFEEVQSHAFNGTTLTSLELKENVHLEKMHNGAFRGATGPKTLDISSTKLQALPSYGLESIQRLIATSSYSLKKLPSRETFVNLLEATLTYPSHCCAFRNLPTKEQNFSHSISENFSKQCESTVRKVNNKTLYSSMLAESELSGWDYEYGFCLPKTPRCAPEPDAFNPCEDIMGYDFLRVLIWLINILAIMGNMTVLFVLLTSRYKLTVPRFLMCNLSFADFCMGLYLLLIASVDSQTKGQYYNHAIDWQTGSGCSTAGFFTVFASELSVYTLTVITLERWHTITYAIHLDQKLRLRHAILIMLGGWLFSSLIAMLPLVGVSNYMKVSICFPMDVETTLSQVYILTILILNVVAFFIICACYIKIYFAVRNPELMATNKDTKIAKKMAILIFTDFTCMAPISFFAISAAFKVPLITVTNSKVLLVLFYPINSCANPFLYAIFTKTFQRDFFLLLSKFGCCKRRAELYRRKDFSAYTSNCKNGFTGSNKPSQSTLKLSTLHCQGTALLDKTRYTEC

In the case of “human chorionic gonadotropin (from UniProt P01215)”, the Kd was 0.3 nM.
